# Measurements: IntAct's records for PubMed 15302918
# B1: Juxtaposed with another zinc finger protein 1 (Homo sapiens), Q86VZ6 (parent)
# chain: MTGIAAASFFSNTCRFGGCGLHFPTLADLIEHIEDNHIDTDPRVLEKQELQQPTYVALSYINRFMTDAARREQESLKKKIQPKLSLTLSSSVSRGNVSTPPRHSSGSLTPPVTPPITPSSSFRSSTPTGSEYDEEEVDYEESDSDESWTTESAISSEAILSSMCMNGGEEKPFACPVPGCKKRYKNVNGIKYHAKNGHRTQIRVRKPFKCRCGKSYKTAQGLRHHTINFHPPVSAEIIRKMQQ
# partner: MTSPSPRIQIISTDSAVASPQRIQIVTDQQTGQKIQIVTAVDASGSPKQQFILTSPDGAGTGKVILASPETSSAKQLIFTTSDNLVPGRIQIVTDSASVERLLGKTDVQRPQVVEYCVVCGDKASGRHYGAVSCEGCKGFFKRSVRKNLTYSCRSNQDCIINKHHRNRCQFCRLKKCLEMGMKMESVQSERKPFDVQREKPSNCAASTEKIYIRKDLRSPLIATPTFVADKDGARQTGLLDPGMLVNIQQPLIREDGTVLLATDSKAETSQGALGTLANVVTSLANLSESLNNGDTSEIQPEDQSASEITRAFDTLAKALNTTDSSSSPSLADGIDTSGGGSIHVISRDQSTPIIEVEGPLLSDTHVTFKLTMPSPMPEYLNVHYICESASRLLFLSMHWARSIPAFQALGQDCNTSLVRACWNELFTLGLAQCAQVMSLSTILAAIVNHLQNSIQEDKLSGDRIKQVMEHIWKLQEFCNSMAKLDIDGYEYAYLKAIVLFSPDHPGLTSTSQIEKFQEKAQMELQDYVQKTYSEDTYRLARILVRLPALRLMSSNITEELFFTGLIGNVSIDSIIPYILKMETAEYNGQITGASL
# B2: Nuclear receptor subfamily 2 group C member 2 (Homo sapiens), P49116 (parent)
# chain: B1 partner
# partner: B1 chain
# Variants of: B1
# Conditions: with nr2c2_human NR2C2, P49116
row,Variant,effect of a mutation on the interaction
1,A69P,with no effect
2,Y60D,disrupting interaction strength
3,L76P,decreasing interaction strength
4,K47P,with no effect

# Variants of: B2
# Conditions: with jazf1_human JAZF1, Q86VZ6
row,Variant,effect of a mutation on the interaction
1,I576N,decreasing interaction strength
